Laboratory results published in publication PMC10397247.

Experiments:
4H953-bH = molecular target: T1, 4H953-bH; test: two-hybrid library CCNG1;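 note: natural log of median RNA to DNA barcode read ratio; higher means stronger binding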
T1 chain: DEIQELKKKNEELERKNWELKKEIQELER

4H967-bH = molecular target: T2, 4H967-bH; test: two-hybrid library CCNG1;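 note: natural log of median RNA to DNA barcode read ratio; higher means stronger binding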
T2 chain: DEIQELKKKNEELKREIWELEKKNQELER

4H918-bH = molecular target: T3, 4H918-bH; test: two-hybrid library CCNG1;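 note: natural log of median RNA to DNA barcode read ratio; higher means stronger binding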
T3 chain: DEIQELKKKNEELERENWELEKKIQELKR

4H883-bH = molecular target: T4, 4H883-bH; test: two-hybrid library CCNG1;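 note: natural log of median RNA to DNA barcode read ratio; higher means stronger binding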
T4 chain: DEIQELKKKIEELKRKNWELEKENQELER

4H908-bH = molecular target: T5, 4H908-bH; test: two-hybrid library CCNG1;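 note: natural log of median RNA to DNA barcode read ratio; higher means stronger binding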
T5 chain: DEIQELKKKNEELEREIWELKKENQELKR

4H63-AA = molecular target: T6, 4H63-AA; test: two-hybrid library CCmax; settings: mean of both orientations;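 note: natural log of median RNA to DNA barcode read ratio; higher means stronger binding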
T6 chain: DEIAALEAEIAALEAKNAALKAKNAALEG

4H483-AA = molecular target: T7, 4H483-AA; test: two-hybrid library CCmax; settings: mean of both orientations
T7 chain: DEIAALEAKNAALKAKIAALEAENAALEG

4H446-AA = molecular target: T8, 4H446-AA; test: two-hybrid library CCmax
T8 chain: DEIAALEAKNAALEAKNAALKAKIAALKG

4H464-AA = molecular target: T9, 4H464-AA; test: two-hybrid library CCmax; settings: mean of both orientations
T9 chain: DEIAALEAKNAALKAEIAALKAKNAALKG

4H478-AA = molecular target: T10, 4H478-AA; test: two-hybrid library CCmax; settings: mean of both orientations
T10 chain: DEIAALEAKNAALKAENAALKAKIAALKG

4H3939-AA = molecular target: T11, 4H3939-AA; test: two-hybrid library CCmax; settings: mean of both orientations
T11 chain: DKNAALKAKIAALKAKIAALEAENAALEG

4H3920-AA = molecular target: T12, 4H3920-AA; test: two-hybrid library CCmax; settings: mean of both orientations
T12 chain: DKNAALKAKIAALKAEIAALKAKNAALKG

4H497-AA = molecular target: T13, 4H497-AA; test: two-hybrid library CCmax; settings: mean of both orientations
T13 chain: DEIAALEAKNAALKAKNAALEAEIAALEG

4H391-AA = molecular target: T14, 4H391-AA; test: two-hybrid library CCmax
T14 chain: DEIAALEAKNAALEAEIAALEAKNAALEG

4H428-AA = molecular target: T15, 4H428-AA; test: two-hybrid library CCmax; settings: mean of both orientations
T15 chain: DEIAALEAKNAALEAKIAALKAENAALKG

4H971-AA = molecular target: T16, 4H971-AA; test: two-hybrid library CCmax; settings: mean of both orientations
T16 chain: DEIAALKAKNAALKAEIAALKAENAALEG

4H675-AA = molecular target: T17, 4H675-AA; test: two-hybrid library CCmax; settings: mean of both orientations
T17 chain: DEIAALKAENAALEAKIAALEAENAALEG

4H656-AA = molecular target: T18, 4H656-AA; test: two-hybrid library CCmax; settings: mean of both orientations
T18 chain: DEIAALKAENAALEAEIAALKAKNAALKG

APC9182-AA = molecular target: T19, APC9182-AA; test: two-hybrid library CCmax
T19 chain: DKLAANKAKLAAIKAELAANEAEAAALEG

APC9806-AA = molecular target: T20, APC9806-AA; test: two-hybrid library CCmax; settings: mean of both orientations
T20 chain: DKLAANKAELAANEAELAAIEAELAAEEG

APC9291-AA = molecular target: T21, APC9291-AA; test: two-hybrid library CCmax; settings: mean of both orientations
T21 chain: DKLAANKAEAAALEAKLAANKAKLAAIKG

4H3631-AA = molecular target: T22, 4H3631-AA; test: two-hybrid library CCmax
T22 chain: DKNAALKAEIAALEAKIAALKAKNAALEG

4H982-AA = molecular target: T23, 4H982-AA; test: two-hybrid library CCmax; settings: mean of both orientations
T23 chain: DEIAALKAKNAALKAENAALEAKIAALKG

4H697-AA = molecular target: T24, 4H697-AA; test: two-hybrid library CCmax; settings: mean of both orientations
T24 chain: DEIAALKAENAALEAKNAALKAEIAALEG

4H384-AA = molecular target: T25, 4H384-AA; test: two-hybrid library CCmax; settings: mean of both orientations
T25 chain: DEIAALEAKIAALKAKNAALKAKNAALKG

4H3697-AA = molecular target: T26, 4H3697-AA; test: two-hybrid library CCmax; settings: mean of both orientations
T26 chain: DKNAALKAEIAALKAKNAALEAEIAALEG

4H3718-AA = molecular target: T27, 4H3718-AA; test: two-hybrid library CCmax; settings: mean of both orientations
T27 chain: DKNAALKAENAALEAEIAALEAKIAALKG

4H3865-AA = molecular target: T28, 4H3865-AA; test: two-hybrid library CCmax; settings: mean of both orientations
T28 chain: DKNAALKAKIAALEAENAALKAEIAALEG

4H850-bH = molecular target: T29, 4H850-bH; test: two-hybrid library CCNG1
T29 chain: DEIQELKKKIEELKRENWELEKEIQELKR

4H906-bH = molecular target: T30, 4H906-bH; test: two-hybrid library CCNG1
T30 chain: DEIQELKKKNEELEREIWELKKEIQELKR

DEIQELKKKIEELKRKNWELEKENQELER [4H883-bH] gave an interaction score (4H953-bH) of -0.831, an interaction score (4H967-bH) of -0.709 and an interaction score (4H918-bH) of -0.51. It also gave an interaction score (4H883-bH) of 0.33 and an interaction score (4H908-bH) of -0.306.

DEIAALEAKNAALEAKNAALKAKIAALKG [4H446-AA] was tested, and the interaction score (4H63-AA) was -1.67, the interaction score (4H483-AA) was -2.13 and the interaction score (4H446-AA) was -1.68. The interaction score (4H464-AA) was -1.77.

In the case of DEIAALEAKNAALEAEIAALEAKNAALEG [4H391-AA], the interaction score (4H478-AA) is reported as -1.59, the interaction score (4H3939-AA) is reported as -1.7 and the interaction score (4H3920-AA) is reported as -1.23. The interaction score (4H497-AA) was -2, the interaction score (4H391-AA) was -1.79 and the interaction score (4H428-AA) was -0.212. The interaction score (4H971-AA) was -1.02, the interaction score (4H675-AA) was -1.11 and the interaction score (4H656-AA) was -0.583.

For DKLAANKAKLAAIKAELAANEAEAAALEG [APC9182-AA], the interaction score (APC9182-AA) was -1.77, the interaction score (APC9806-AA) was -1.59 and the interaction score (APC9291-AA) was -1.98.

For DKNAALKAEIAALEAKIAALKAKNAALEG [4H3631-AA], the interaction score (4H3631-AA) was 0.402, the interaction score (4H982-AA) was -1.91 and the interaction score (4H697-AA) was -1.8. It also gave an interaction score (4H384-AA) of -1.07, an interaction score (4H3697-AA) of -1.62 and an interaction score (4H3718-AA) of 0.0628. The interaction score (4H3865-AA) was -1.53.

With DEIQELKKKIEELKRENWELEKEIQELKR [4H850-bH] the interaction score (4H850-bH) was 0.554 and the interaction score (4H906-bH) was -0.227.
